Article PMC9881156, “POT-3 preferentially binds the terminal DNA-repeat on the telomeric G-overhang”

Assays:
POT-3 [1] = biological target: T1, POT-3 (Caenorhabditis elegans, UniProt G5EFG7 1-215); experiment: EMSA; conditions: apparent, EMSA: 20 mM Tris-HCl pH 8.0, 50 mM NaCl, 1 mM MgCl2, 5 mM DTT, 50 ug/ml BSA, 4% Ficoll 400, on ice 10 min, competition and S4 Kd: same salts with 0.001% …
T1 sequence: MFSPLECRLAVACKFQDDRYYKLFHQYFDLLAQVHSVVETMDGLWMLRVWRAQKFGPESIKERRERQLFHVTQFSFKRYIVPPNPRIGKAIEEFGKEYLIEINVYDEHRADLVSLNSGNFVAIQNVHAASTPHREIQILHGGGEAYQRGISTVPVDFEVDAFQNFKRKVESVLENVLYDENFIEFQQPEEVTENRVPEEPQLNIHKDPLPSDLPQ

POT-2 [2] = biological target: T2, POT-2 (Caenorhabditis elegans, UniProt O45595 1-251); experiment: EMSA; conditions: apparent, EMSA: 20 mM Tris-HCl pH 8.0, 50 mM NaCl, 1 mM MgCl2, 5 mM DTT, 50 ug/ml BSA, 4% Ficoll 400, on ice 10 min, competition and S4 Kd: same salts with 0.001% …
T2 sequence: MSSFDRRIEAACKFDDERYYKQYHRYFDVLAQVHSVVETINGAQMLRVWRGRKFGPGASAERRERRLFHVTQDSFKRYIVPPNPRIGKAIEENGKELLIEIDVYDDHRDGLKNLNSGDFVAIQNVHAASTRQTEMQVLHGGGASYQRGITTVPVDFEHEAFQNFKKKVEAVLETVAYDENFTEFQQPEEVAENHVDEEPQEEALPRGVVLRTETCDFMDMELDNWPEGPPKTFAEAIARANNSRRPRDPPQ

POT-3 [3] = biological target: T1, POT-3; experiment: analytical gel filtration; 1 protein per DNA; 500 mM NaCl; EMSA: 20 mM Tris-HCl pH 8.0, 50 mM NaCl, 1 mM MgCl2, 5 mM DTT, 50 ug/ml BSA, 4% Ficoll 400, on ice 10 min; competition and S4 Kd: same salts with 0.001% Tween-20, room temperature; gel filtration: 20 mM Tris-HCl pH 8.0, 500 mM NaCl, 10 mM DTT, 10% glycerol (binding); conditions: protein: recombinant; tags: 6xHis
POT-2 [4] = biological target: T2, POT-2; experiment: as above; conditions: protein: recombinant; tags: 6xHis
POT-3 [5] = biological target: T1, POT-3; experiment: analytical gel filtration; 3 proteins per DNA; 500 mM NaCl; EMSA: 20 mM Tris-HCl pH 8.0, 50 mM NaCl, 1 mM MgCl2, 5 mM DTT, 50 ug/ml BSA, 4% Ficoll 400, on ice 10 min; competition and S4 Kd: same salts with 0.001% Tween-20, room temperature; gel filtration: 20 mM Tris-HCl pH 8.0, 500 mM NaCl, 10 mM DTT, 10% glycerol (binding); conditions: protein: recombinant; tags: 6xHis
POT-2 [6] = biological target: T2, POT-2; experiment: as above; conditions: protein: recombinant; tags: 6xHis

Question: What does the source list for “fragment 7 / 12mer, (TTAGGC)2 3' overhang”?
Answer: Kd (POT-3 [1]; on ice): 0.16 nM; Kd (POT-3 [1]; room temperature): 5 nM; Kd (POT-2 [2]; on ice): 0.1 nM; Kd (POT-2 [2]; room temperature): 7.2 nM

B1: (TTAGGC)2 ssDNA (ssDNA)
DNA: TTAGGCTTAGGC
Question: Does B1 bind (POT-3 [3])?
Answer: binds

Question: Does B1 bind (POT-2 [4])?
Answer: binds

B2: (TTAGGC)4 ssDNA (ssDNA)
DNA: TTAGGCTTAGGCTTAGGCTTAGGC
Question: Which results are given for B2?
Answer: binding result (POT-3 [5]): binds; binding result (POT-2 [6]): binds
